Values joined by “and” are separate entries in the source; they are usually repeats but may differ in a detail not shown here. Equal entries are not always repeated.

For data set [1], the system named is Insulin glargine single chain precursor (Fglargine), glargine pro-peptide.
Data set [2] deals with Insulin glargine single chain precursor (Fglargine), glargine pro-peptide. This is another data set of the same source.

Turning to “endogenous Kex2p (Kexin endoprotease) of Pichia pastoris”, in data set [1], the % conversion achieved (HPLC peak areas) was 0%; the % yield increased (two chain glargine), clone without co-expression is 5% and 0%; the “secretion of two chain glargine (mass analysis of secreted product)” value was “it is not possible to secrete two chain glargine directly into the medium using endogenous Kex2p alone”.

B1: ΔKex2p, 660 amino acid functional domain of Kexin endoprotease (Kex2p) from Pichia pastoris (protein)
chain: MYLPALRLACWILIGLRSTEALETSEREIFALKLDKSWLPTFLETFQDKFRYERQINGLDDYHVFSHSKNEEFQLENFKVKTLLTRDNANLHSELISHNVDEVHMLRPSHYLHKRAPVVMDKSEELREQIAKDFDIDDPLFAKQWHLFNPRYPGHDVNVSQVWYDGITGKGVVTAIVDDGLDMDSKDLKESFCEEGSWDFNANTRLPKPRLRDDHHGTRCAAEIAAKKGNKYCGVGVAYDSKVSGIRILSDKITPEDEALSLIYGLDVNDIYSCSWGPADNGITMQGPSSLVKEAMLKGVQDGRKGKGALYVFASGNGASSGDNCNFDGYTNSIYSITVGAIDIKGLHPPYAEACSAVMTVTYSSGSGEHIHTTDINDKCSDTHGGTSAAAPLAAGLYSLVYQANPDLTWRDIQWLTVLTAVPVNEQEPGWQKTAIGKMYSHKYGYGKIDAYALVNLARSPDFPYLKPQSWIYGTEVHESLNTSEANGVLTSKYELTQEAKDLMNFEKIEHVTVTVDIKAAERGKVLVELISPSGVVSELAPYRRMDKDKEGFPNWTFMSVAHWGEDGLGEWILKITNKEGNSVVLNSWQIKFFGESQDPEKAEKFSLTKKYDEILVNPPSSSTSTTVDTSSTEATFSSSSVSEASATETDVKETSTTGD
Regarding B1, in data set [2], the % conversion achieved (HPLC peak areas), Clone #2F6, GAP promoter worked out at 9.44%; the % conversion achieved (HPLC peak areas), Clone #3C1, GAP promoter was found to be 31.4%; the % conversion achieved (HPLC peak areas), Clone #4B7, GAP promoter came out at 33.6%; the % conversion achieved (HPLC peak areas), Clone #5C5, GAP promoter turned out to be 45%. In data set [2], this molecule showed a % conversion achieved (HPLC peak areas), Clone #IB4, GAP promoter of 13%; a % conversion achieved (HPLC peak areas), Clone# 6D6, GAP promoter of 59.5%; a % yield increased (two chain glargine), FLD1 promoter above 93%; a % yield increased (two chain glargine), GAP promoter of 60%.

The values above are taken from patent publication US20150118710.
